IntAct's records for PubMed 22322943

B1: Axin-2 (Mus musculus), O88566 (parent)
chain: MSSAVLVTLLPDPSSSFREDAPRPPVPGEEGETPPCQPSVGKVQSTKPMPVSSNARRNEDGLGEPEGRASPDSPLTRWTKSLHSLLGDQDGAYLFRTFLEREKCVDTLDFWFACNGFRQMNLKDTKTLRVAKAIYKRYIENNSVVSKQLKPATKTYIRDGIKKQQIGSVMFDQAQTEIQAVMEENAYQVFLTSDIYLEYVRSGGENTAYMSNGGLGSLKVLCGYLPTLNEEEEWTCADLKCKLSPTVVGLSSKTLRATASVRSTETAENGFRSFKRSDPVNPYHVGSGYVFAPATSANDSELSSDALTDDSMSMTDSSVDGVPPYRMGSKKQLQREMHRSVKANGQVSLPHFPRTHRLPKEMTPVEPAAFAAELISRLEKLKLELESRHSLEERLQQIREDEEKEGSEQALSSRDGAPVQHPLALLPSGSYEEDPQTILDDHLSRVLKTPGCQSPGVGRYSPRSRSPDHHHQHHHHQQCHTLLPTGGKLPPVAACPLLGGKSFLTKQTTKHVHHHYIHHHAVPKTKEEIEAEATQRVRCLCPGGTDYYCYSKCKSHPKAPEPLPGEQFCGSRGGTLPKRNAKGTEPGLALSARDGGMSSAAGAPQLPGEEGDRSQDVWQWMLESERQSKSKPHSAQSIRKSYPLESACAAPGERVSRHHLLGASGHSRSVARAHPFTQDPAMPPLTPPNTLAQLEEACRRLAEVSKPQKQRCCVASQQRDRNHSAAGQAGASPFANPSLAPEDHKEPKKLASVHALQASELVVTYFFCGEEIPYRRMLKAQSLTLGHFKEQLSKKGNYRYYFKKASDEFACGAVFEEIWDDETVLPMYEGRILGKVERID

Variants of: B1
Conditions: with cdc20_human CDC20, Q12834
Sequence of cdc20_human CDC20, Q12834 (Q12834 whole entry): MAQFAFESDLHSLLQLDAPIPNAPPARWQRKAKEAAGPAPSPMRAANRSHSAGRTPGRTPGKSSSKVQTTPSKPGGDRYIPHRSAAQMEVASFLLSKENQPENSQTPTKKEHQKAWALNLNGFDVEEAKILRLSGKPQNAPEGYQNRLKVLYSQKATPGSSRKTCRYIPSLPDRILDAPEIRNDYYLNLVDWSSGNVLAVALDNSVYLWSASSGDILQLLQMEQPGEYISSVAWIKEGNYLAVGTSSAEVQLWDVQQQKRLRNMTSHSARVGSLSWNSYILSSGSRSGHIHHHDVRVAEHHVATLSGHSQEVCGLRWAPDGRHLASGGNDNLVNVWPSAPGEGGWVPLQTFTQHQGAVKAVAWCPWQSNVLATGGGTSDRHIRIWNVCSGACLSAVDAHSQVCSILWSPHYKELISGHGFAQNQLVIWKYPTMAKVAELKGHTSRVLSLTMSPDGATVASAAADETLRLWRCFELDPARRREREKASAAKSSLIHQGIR

Row | effect of a mutation on the interaction | Variant
1 | decreasing interaction | R96A
2 | decreasing interaction | L99A

Variants of: B1
Conditions: with cdc20_human CDC20, Q12834
Remark: another data set of the same source

Row | Variant | effect of a mutation on the interaction
3 | L391A | decreasing interaction
4 | R388A | decreasing interaction
5 | R776A | decreasing interaction
6 | R657A | decreasing interaction

Next, values leading:

Row | effect of a mutation on the interaction | Variant
7 | decreasing interaction | R775A
8 | decreasing interaction | L778A
9 | decreasing interaction | L660A
